Marks after values point to notes of the source that are not given here.
Legend:
PlGF = biological target: T1, PlGF (Homo sapiens, UniProt P49763); test: Free peptide binding ELISA (FLAG epitope probe), PlGF-coated wells; details: free peptide; BP3, BP4, BP3scr at up to 50 μM
T1 construct: purchased R&D Systems
T1 sequence (P49763 19-170 isoform P49763-3 limits assumed): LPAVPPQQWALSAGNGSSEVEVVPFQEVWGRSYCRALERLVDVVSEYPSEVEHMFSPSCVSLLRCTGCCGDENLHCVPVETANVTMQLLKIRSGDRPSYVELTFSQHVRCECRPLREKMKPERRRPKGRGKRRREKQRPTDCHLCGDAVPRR
Method: (§1) Competition assays were done with 2.5 or 25 U/ml heparin (Sigma, St. Louis, Mo.). BP1, 3, 4, and a scrambled version of BP3 (scrBP3) were synthesized with a linker followed by the FLAG epitope ([…] SEQ ID NO:5) at the C-terminus. Thirty minutes after addition of the first reagent, the second reagent was added, followed by another 30 minute incubation. Peptide binding was assessed by probing for the FLAG epitope (Prickett et al., Biotechniques 7:580-9, 1989; Castrucci et al., J. Virol. 66:4647-53, 1992). Absorbance was read at 490 nm.

[1] = biological target: T2, recombinant human Flt-1 fusion protein (Homo sapiens, UniProt P17948); test: Free peptide binding and competition ELISA, Flt-1-coated wells; details: free peptide
T2 construct: purchased R & D Systems
T2 sequence (P17948 with tags, fused parts or gaps limits assumed): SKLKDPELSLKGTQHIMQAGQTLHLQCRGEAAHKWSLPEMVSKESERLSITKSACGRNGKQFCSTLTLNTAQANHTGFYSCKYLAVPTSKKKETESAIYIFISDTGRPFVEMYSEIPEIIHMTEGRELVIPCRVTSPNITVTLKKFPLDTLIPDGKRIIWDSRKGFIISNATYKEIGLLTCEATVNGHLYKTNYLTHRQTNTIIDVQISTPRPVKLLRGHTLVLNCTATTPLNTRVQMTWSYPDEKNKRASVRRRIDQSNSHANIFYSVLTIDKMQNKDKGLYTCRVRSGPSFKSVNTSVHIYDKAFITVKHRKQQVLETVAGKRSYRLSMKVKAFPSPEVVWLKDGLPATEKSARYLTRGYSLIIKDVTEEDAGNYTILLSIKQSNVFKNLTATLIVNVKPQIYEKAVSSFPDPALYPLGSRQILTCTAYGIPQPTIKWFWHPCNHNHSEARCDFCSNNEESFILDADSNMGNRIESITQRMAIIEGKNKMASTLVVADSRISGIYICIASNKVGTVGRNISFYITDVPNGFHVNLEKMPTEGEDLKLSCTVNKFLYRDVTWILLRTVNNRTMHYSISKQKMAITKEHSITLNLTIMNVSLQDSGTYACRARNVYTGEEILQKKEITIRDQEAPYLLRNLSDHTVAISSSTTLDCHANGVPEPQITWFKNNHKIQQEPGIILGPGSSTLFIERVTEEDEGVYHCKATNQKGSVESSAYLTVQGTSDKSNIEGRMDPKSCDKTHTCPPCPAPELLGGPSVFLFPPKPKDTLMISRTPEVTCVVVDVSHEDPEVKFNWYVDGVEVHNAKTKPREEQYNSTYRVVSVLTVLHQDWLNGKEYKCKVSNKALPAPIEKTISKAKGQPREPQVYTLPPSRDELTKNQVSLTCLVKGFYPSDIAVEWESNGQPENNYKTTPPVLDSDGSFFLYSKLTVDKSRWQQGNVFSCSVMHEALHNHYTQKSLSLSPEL
Method: as §1

[2] = test system: MCF-7 human breast cancer cells; format: cell-based
Method: (§2) MTT (3-(4,5-dimethylthiazolyl-2)-2,5-diphenyltetrazolium bromide, Sigma) assays were performed under conditions of low serum (1%) to determine PlGF effects on cell viability, the toxicity of the peptides, and their effect on PlGF-mediated breast tumor cell growth (Mosmann, 1983, J Immunol Meth 65:55-63; Modrak et al., 2000, Biochem Biophys Res Commun 268:603-606). Peptide concentration was 1-2 μM, and the concentration of exogenous PlGF was 2 nM. The human breast tumor lines tested were: MDA-MB-231, MDA-MB-468 and MCF-7 (ATCC, Mannasses, Va.). Briefly, 96-well plates were seeded with 5-10×10^4 cells/ml in medium containing 1% fetal bovine serum (FBS). After 24 h, cells were treated with individual peptides at a concentration of 1-2 μM (4 binding peptides), in quadruplicate, and/or rhuPlGF at a 2-nM concentration. After the designated time points, 0.5 mg/ml MTT (5 mg/ml stock diluted 1:10 in RPMI medium with no serum) was added to the wells (Mosmann, 1983). When purple crystals were clearly visible in the cells, and the plate appeared to be fully developed, the reaction was terminated with acid alcohol (0.04M HCl in isopropanol). Absorbance of the dissolved crystals was read at 570 nm. The 24-h time point was chosen because the in vitro effects of PlGF on tumor cell migration were measurable at this time (see wound-healing assay below). These assays were also performed using medium with 10% FBS, with similar results.

MDA-MB-468 xenografts = format: in vivo, mice; details: 200 μg/dose i.p., twice-weekly; for tumor growth inhibition: after 4 weeks
Method: FIG. 5. Treatment of mice bearing MDA-MB-468 xenografts with peptides BP1 or BP3. Mice were treated every 3-4 days with 200 ug BP as described in Methods. Tumor volume was measured 2×/week. *P<0.05 at days 10, 14, 17 and 24 (change in tumor volume (ANOVA)). FIG. 5A—tumors treated with binding peptide 1. FIG. 5B—tumors treated with binding peptide 3.
Mice bearing MDA-MB-468 xenografts (average tumor volume: 0.19 cm^3) were treated with i.p. injections of individual peptides (200 μg/dose) (FIG. 5). After 4 weeks of twice-weekly treatment, tumor growth was inhibited by 49% and 58% in mice treated with BP1 (FIG. 5A) or BP3 (FIG. 5B), respectively. The effect of BP3 on tumor growth was apparent after 2 weeks of treatment (FIG. 5B), whereas the inhibitory effect of BP1 was evident after one week (FIG. 5A). The average changes in individual tumor volumes during treatment with BP1 were significant (P<0.05) at days 10, 14, 17 and 24 (FIG. 5A). Treatment with BP2 was ineffective; tumors continued to grow at almost the same rate as the mock-treated controls (results not shown). BP4 treatment produced a 20% inhibition of tumor growth (results not shown).

[3] = test system: PlGF-mediated angiogenesis in corneal tissues; test: Mouse corneal micropocket angiogenesis assay; format: in vivo, C57B16/J mice; details: day 5; for effect on PlGF mediated angiogenesis in corneal tissues: micropellets, 100 ng PlGF with 1 μM peptide
Method: The ability of PlGF ligands to block PlGF-mediated angiogenesis in corneal tissues in vivo is investigated. Corneal micropockets are created using a modified von Graefe cataract knife in both eyes of male 5-6-wk-old C57B16/J mice. Micropellets comprised of a sustained release formulation of polyglucuronic acid/polylactic acid containing 100 ng of PlGF or PlGF with 1 μM BP-1, BP-2, BP-3 or BP-4 are implanted into each corneal pocket. Eyes are examined by a slit-lamp biomicroscope on day 5 after pellet implantation. Vessel length and neovascularization are measured.

[4] = test system: MDA-MB-231 human breast cancer cells; test: MTT tumor cell viability assay, MDA-MB-231; format: cell-based; details: 24 h
Method: as §2, with “These assays were also performed using medium with 10% FBS, with similar results.” left out

[5] = test system: MDA-MB-468 human breast cancer cells; test: MTT tumor cell viability assay, MDA-MB-468; format: cell-based; details: peptide 2 μM or PlGF 2 nM alone, 24 h
Method: as §2, with “These assays were also performed using medium with 10% FBS, with similar results.” left out

MDA-MB-231 [6] = test: Wound-healing (motility) assay, MDA-MB-231; format: cell-based, human
Method: (§3) MCF-7, MDA-MB-23 1, and MDA-MB-468 breast tumor cell lines or HECs were seeded onto sterile glass coverslips in Petri dishes or six-well plates. When the cells were 70-80% confluent, the monolayers were scratched with a sterile plastic pipet tip.
(§4) Inhibitor concentrations were 50 μM PD98059 (PD98) (mitogen activated protein kinase-kinase 1 [MEK1] inhibitor), 5 nM Wortmannin (phosphatidyl inositol 3 kinase [PI3K] inhibitor), or human recombinant soluble Flt-1 (sFlt-1) (R&D Systems). […] Cells were pre-incubated with PD98 and Wortmannin for 15-30 min before addition of PlGF. Stained (Wright-Giemsa) and mounted coverslips were examined microscopically. Five to ten 100× fields were evaluated by counting the number of cells separated from the wound edges and which appeared to be migrating toward the center of the wound. Results are reported as the average number of cells migrating into the wound/100× field. In some cases data from separate experiments were combined to accommodate inclusion of various treatments in the tables.
(§5) Antibody concentration was 1 μg/ml. MEK1 inhibitor, PD98059 (PD98), 50 μM. PI3K inhibitor, Wortmannin, 5 nM. […] Values for antibody and inhibitor treatments were from separate experiments which included all relevant controls. […] UT denotes untreated controls. *P<0.01 (ANOVA) compared to UT; † P<0.02 (ANOVA) compared to PlGF only. ‡ P<0.001 (ANOVA) compared to PlGF only.

MDA-MB-468 [7] = test: Wound-healing (motility) assay, MDA-MB-468; format: cell-based, human
Method: as §3, §4, §5

MCF-7 [8] = test: Wound-healing (motility) assay, MCF-7; format: cell-based, human
Method: as §3, §4, §5

MDA-MB-231 [9] = test: Matrigel cell invasion assay, MDA-MB-231; format: cell-based, human; details: 24 h
Method: (§6) Cellular invasion was determined by addition of 5×10^4cells to growth factor-reduced Matrigel invasion chambers (BD Biosciences Discovery Labware, Bedford, Mass.) (Taylor et al., 2003b; Passaniti et al., 1992, Lab Invest 67, 519-528). Additives to the Matrigel® plugs were pre-incubated together in a total volume of 100 μl PBS at RT for 10 min, after which each additive was added to the Matrigel. Growth factors (2.0 or 0.2 nM), peptide (2 μg/ml), or antibody (1 μg/ml) were added to cells in low serum (0.1% fetal bovine serum [FBS]) medium. Baseline and chemoattractant-based invasion (10% FBS) were included. The number of invading cells was determined by counting the number of cells on the bottom of the invasion chamber membrane after staining at 100× magnification after 24 h (MDA-MB-231) or 48 h (MCF-7, MDA-MB-468). The results of three to five separate experiments are presented.

MCF-7 [10] = test: Matrigel cell invasion assay, MCF-7; format: cell-based, human; details: PlGF 0.2 nM ± peptide 2 μg/ml; 48 h
Method: as §6

MDA-MB-468 [11] = test: Matrigel cell invasion assay, MDA-MB-468; format: cell-based, human; details: PlGF 0.2 nM ± peptide 2 μg/ml; 48 h
Method: as §6

[12] = test system: microvessels in PlGF-containing Matrigel plugs; test: Matrigel basement membrane plug angiogenesis assay; format: in vivo, nude mice
From the text: To further investigate the effect of PlGF binding peptides on endothelial cell migration and angiogenesis, Matrigel basement membrane plugs containing PlGF, BP1, BP2, or PBS were implanted s.c. on the flanks of nude mice. The number of interior microvessels in the PBS controls was 16.2±11.4/mm^2. PlGF-only implants contained 28.9±17.2/mm^2 (1.8-fold vs. mock-treated implants), and implants with PlGF and BP1 contained only 12.3±13.0 microvessels/mm^2 (P<0.02).

[13] = PlGF 2 nM ± test agent, relative to PlGF-only value
[14] = growth factor PlGF 2 nM ± test agent (Flt-1 2 nM, peptide 2 μM, antibody 1 μg/ml), 18-24 h

Molecule: RMPYSEHSAPLG (listed as Homo sapiens) [BP4]
- binding to PlGF (in words) (PlGF): did not bind detectably
- binding to Flt-1 (in words) [1]: No measurable binding
- effect on viability of PlGF-containing MCF-7 cultures ([2]; PlGF 2 nM + peptide 1-2 μM, 24 h, 1% serum): significant reduction in cell viability
- tumor growth inhibition (MDA-MB-468 xenografts): 20%
- effect on PlGF mediated angiogenesis in corneal tissues [3]: inhibits

Molecule: QEAFNRLTSRMH (listed as Homo sapiens) [BP3]
- binding to PlGF (in words) (PlGF): did not bind detectably
- binding to Flt-1 (in words) [1]: No measurable binding
- effect on viability after 48 h, peptide alone ([2]; peptide alone, 48 h, vs untreated controls): lost viability
- effect on viability of PlGF-containing MDA-MB-231 cultures ([4]; PlGF 2 nM + peptide 1-2 μM, 1% serum): significant reduction in cell viability
- duration of treatment after which effect on tumor growth was apparent (MDA-MB-468 xenografts): 2 weeks
- tumor growth inhibition (MDA-MB-468 xenografts): 58%
- effect on PlGF mediated angiogenesis in corneal tissues [3]: inhibits

B1: PlGF: recombinant human PlGF-2, placental growth factor (R&D Systems) (protein)
chain: LPAVPPQQWALSAGNGSSEVEVVPFQEVWGRSYCRALERLVDVVSEYPSEVEHMFSPSCVSLLRCTGCCGDENLHCVPVETANVTMQLLKIRSGDRPSYVELTFSQHVRCECRPLREKMKPERRRPKGRGKRRREKQRPTDCHLCGDAVPRR
- effect on cell viability / cell number, agent alone ([4]; peptide 2 μM or PlGF 2 nM alone): increased cell numbers
- effect on cell viability / cell number, agent alone [5]: increased cell numbers
- Relative activity (MDA-MB-231 [6]; [13]): 100
- increase in motility (MDA-MB-231 [6]; exogenous PlGF): 1.8-2.1 fold
- Migrating cells (MDA-MB-231 [6]; growth factor PlGF 2 nM ± test agent (Flt-1 2 nM, peptide 2 μM, antibody 1 μg/ml, PD98059 50 μM, Wortmannin 5 nM), 18-24 h): 42.0 ± 13.3* cells/100× field
- Relative activity (MDA-MB-468 [7]; [13]): 100
- effect on motility (in words) (MDA-MB-468 [7]; exogenous PlGF): did not significantly affect
- Migrating cells (MDA-MB-468 [7]; [14]): 14.7 ± 9.8 cells/100× field
- Relative activity (MCF-7 [8]; [13]): 100
- increase in motility (MCF-7 [8]; exogenous PlGF): 1.8-2.1 fold
- Migrating cells (MCF-7 [8]; [14]): 22.1 ± 13.4* cells/100× field
- Average fold-change in the number of cells on the membrane compared to untreated controls (MDA-MB-231 [9]; PlGF 0.2 nM ± peptide 2 μg/ml): 4.0 ± 2.2 fold
- invading cells (MDA-MB-231 [9]; PlGF 0.2 nM): 28±12 cells
- invading cells (MDA-MB-231 [9]; PlGF 2.0 nM): 30±13.7 cells
- increased invasion (MDA-MB-231 [9]; PlGF at both 2.0 and 0.2 nM): ~3 fold
- Average fold-change in the number of cells on the membrane compared to untreated controls (MCF-7 [10]): 2.1 ± 0.7 fold
- Average fold-change in the number of cells on the membrane compared to untreated controls (MDA-MB-468 [11]): 1.8 ± 0.3 fold
- interior microvessels ([12]; PlGF-containing implants ± BP1, s.c., PBS controls 16.2±11.4): 28.9±17.2 /mm^2
- microvessels, fold vs. mock-treated implants ([12]; PlGF-only implants): 1.8 fold
- angiogenic response in cornea ([3]; micropellets with 100 ng PlGF): induces a strong angiogenic response
